The source of these data is publication PMC2897912 (Journal of immunology (Baltimore, Md. : 1950), 2010).

The target in the test is T1, IL-17RC-FL (murine IL-17RC, full length, unspliced, C-terminal Myc tag) (mouse, UniProt Q8K4C2 22-698).
T1 sequence (looked up): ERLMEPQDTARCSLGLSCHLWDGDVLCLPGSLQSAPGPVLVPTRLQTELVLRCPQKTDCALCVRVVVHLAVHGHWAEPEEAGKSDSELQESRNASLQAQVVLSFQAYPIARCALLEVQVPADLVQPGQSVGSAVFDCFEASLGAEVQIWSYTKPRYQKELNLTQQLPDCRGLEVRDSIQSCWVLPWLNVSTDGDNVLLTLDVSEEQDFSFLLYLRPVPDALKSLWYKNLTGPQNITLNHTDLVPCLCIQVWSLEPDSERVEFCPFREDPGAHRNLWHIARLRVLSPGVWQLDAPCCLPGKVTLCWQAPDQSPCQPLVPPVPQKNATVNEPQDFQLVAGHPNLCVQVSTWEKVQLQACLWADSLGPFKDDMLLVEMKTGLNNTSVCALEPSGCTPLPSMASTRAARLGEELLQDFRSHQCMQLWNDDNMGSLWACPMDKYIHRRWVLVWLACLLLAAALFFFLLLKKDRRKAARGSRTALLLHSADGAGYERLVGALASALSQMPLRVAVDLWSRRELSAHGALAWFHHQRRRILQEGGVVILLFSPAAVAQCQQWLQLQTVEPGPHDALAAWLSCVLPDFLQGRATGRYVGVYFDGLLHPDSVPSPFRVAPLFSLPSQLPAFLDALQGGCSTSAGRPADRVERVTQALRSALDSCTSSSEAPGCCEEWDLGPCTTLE
Put plainly: co-IP.

B1: CFP-tagged murine Act1, larger phosphorylated isoform (phospho-Act1) (natural protein, mouse, UniProt Q8N7N6 1-555, looked up)
chain: MNRSIPVEVDESEPFPSQLLKPIPEYSPEEELEPPAPNTRNMAPSSLSVLQCPPLKLANHQPVSQQVTCLRAKVLEEGEASFFRRHPELGKDISSCSSGASEPESELGALPPEHRFTLTEKRNRWLGSQLSAASPDTGHESDKSDPSLPNALADSFSGGQEMMPRPRPRPGPHRHRAAPDVPTIDTGYDSQPQDVLGIRQLERPLPLTSSCYLQDLPGPLRSRELPPQFELERYPMNAQLLPPHPSPQAPWNCQYYCPGGPYHHQVPHGHGYPPAAAYQQVLQPALPGQVLPGARARGPRPVQKVILNDSSPQDQEERPAQRDFSFPRLPRDQLYRPPSNGVEAPEESLDLPAELRPHGPQAPSLAAVPRPPSNPLARGTLRTSNLPEELRKVFITYSMDTAMEVVKFVNFLLVNGFQTAIDIFEDRIRGIDIIKWMERYLRDKTVMIIVAISPKYKQDVEGAESQLDEDEHGLHTKYIHRMMQIEFISQGSMNFRFIPVLFPNAKKEHVPTWLQNTHVYSWPKNKKNILLRLLREEEYVAPPRGPLPTLQVVPL
modifications: phosphorylated (removed by shrimp alkaline phosphatase; sites not stated)
B1: the “fold induction of co-precipitated phospho-Act1 over the 0 time point” value was ~6 fold.
